The source of these data is IntAct's records for PubMed 35512704.

To fix the notation:
B1: Mothers against decapentaplegic homolog 4 (Homo sapiens), Q13485 (parent)
chain: MDNMSITNTPTSNDACLSIVHSLMCHRQGGESETFAKRAIESLVKKLKEKKDELDSLITAITTNGAHPSKCVTIQRTLDGRLQVAGRKGFPHVIYARLWRWPDLHKNELKHVKYCQYAFDLKCDSVCVNPYHYERVVSPGIDLSGLTLQSNAPSSMMVKDEYVHDFEGQPSLSTEGHSIQTIQHPPSNRASTETYSTPALLAPSESNATSTANFPNIPVASTSQPASILGGSHSEGLLQIASGPQPGQQQNGFTGQPATYHHNSTTTWTGSRTAPYTPNLPHHQNGHLQHHPPMPPHPGHYWPVHNELAFQPPISNHPAPEYWCSIAYFEMDVQVGETFKVPSSCPIVTVDGYVDPSGGDRFCLGQLSNVHRTEAIERARLHIGKGVQLECKGEGDVWVRCLSDHAVFVQSYYLDREAGRAPGDAVHKIYPSAYIKVFDLRQCHRQMQQQAATAQAAAAAQAAAVAGNIPGPGSVGGIAPAISLSAAAGIGVDDLRRLCILRMSFVKGWGPDYPRQSIKETPCWIEIHLHRALQLLDEVLHTMPIADPQPLD
partner: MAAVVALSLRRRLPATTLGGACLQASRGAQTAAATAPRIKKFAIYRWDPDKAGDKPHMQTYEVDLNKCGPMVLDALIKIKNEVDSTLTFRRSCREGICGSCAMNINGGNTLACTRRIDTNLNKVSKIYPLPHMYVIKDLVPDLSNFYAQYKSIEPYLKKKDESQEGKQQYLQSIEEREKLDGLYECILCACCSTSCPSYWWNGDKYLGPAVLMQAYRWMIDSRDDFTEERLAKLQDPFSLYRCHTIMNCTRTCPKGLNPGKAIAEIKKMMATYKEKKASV
B2: Mothers against decapentaplegic homolog 4 (Homo sapiens), Q13485 (parent)
chain: B1 chain
partner: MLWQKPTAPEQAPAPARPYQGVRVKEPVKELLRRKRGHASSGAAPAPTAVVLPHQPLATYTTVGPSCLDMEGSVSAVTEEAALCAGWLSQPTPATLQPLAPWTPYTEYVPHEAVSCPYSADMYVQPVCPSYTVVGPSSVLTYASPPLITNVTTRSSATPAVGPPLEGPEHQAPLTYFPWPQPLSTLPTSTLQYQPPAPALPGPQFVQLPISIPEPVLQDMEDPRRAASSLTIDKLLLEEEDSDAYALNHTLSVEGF
B3: Mothers against decapentaplegic homolog 4 (Homo sapiens), Q13485 (parent)
chain: B1 chain
partner: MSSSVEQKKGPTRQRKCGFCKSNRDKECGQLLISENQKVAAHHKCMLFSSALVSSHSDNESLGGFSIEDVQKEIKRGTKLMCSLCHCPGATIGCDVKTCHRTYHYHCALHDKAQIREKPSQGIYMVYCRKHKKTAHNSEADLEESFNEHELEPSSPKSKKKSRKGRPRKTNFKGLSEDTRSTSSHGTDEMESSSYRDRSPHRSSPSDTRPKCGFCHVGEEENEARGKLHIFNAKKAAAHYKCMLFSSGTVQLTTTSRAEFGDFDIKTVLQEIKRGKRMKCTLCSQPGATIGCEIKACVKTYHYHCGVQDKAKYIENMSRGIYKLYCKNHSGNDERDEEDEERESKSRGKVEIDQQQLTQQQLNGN
B4: Mothers against decapentaplegic homolog 4 (Homo sapiens), Q13485 (parent)
chain: B1 chain
partner: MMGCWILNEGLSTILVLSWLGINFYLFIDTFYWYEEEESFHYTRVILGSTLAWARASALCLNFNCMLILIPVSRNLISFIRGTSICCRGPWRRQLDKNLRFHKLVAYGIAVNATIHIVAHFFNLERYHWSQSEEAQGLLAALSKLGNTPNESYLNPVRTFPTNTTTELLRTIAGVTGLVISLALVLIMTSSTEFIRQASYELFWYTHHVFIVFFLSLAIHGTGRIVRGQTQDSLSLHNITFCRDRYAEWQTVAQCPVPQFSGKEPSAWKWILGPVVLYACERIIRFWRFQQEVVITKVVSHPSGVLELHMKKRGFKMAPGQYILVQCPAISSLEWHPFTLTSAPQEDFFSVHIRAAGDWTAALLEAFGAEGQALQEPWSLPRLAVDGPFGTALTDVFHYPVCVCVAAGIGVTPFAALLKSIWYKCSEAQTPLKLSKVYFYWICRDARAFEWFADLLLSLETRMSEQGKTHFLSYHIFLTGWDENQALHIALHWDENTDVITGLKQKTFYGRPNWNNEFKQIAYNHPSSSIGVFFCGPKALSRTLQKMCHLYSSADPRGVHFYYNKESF
B5: Mothers against decapentaplegic homolog 4 (Homo sapiens), Q13485 (parent)
chain: B1 chain
partner: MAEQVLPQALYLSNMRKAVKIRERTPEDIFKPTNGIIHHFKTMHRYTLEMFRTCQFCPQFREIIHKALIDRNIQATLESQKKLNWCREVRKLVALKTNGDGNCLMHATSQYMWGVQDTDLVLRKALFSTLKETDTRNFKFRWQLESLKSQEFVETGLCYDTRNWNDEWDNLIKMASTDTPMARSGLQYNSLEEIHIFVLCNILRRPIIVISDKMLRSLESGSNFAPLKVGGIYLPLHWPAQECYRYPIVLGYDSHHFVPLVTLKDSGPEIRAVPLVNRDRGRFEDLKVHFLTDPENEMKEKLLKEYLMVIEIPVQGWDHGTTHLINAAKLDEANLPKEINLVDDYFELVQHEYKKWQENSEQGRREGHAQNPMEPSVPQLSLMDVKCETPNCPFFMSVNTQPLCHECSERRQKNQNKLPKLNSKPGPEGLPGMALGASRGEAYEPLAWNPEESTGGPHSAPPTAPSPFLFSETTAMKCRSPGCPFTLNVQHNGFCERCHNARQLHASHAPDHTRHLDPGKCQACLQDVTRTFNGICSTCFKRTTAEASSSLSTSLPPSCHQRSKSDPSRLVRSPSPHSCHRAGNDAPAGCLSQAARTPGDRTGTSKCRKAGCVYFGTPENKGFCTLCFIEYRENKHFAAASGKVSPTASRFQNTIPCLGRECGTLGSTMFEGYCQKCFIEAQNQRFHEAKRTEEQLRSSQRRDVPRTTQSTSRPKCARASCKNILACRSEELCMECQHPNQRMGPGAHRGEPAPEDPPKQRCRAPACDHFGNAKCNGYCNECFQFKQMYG
B6: Mothers against decapentaplegic homolog 4 (Homo sapiens), Q13485 (parent)
chain: B1 chain
partner: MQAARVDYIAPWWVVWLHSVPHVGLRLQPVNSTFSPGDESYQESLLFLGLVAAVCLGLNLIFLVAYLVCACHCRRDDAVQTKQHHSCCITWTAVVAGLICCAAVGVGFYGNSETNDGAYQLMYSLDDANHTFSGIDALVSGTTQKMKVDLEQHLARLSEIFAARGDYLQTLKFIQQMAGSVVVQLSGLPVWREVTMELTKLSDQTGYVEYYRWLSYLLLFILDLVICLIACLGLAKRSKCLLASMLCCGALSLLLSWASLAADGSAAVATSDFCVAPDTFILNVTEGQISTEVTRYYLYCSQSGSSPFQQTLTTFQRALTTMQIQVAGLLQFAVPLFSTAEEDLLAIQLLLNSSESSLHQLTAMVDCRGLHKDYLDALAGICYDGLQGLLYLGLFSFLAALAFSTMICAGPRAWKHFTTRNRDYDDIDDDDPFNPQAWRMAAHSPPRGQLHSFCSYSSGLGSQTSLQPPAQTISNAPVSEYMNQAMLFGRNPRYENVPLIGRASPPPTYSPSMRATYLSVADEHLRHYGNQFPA
B7: Mothers against decapentaplegic homolog 4 (Homo sapiens), Q13485 (parent)
chain: B1 chain
partner: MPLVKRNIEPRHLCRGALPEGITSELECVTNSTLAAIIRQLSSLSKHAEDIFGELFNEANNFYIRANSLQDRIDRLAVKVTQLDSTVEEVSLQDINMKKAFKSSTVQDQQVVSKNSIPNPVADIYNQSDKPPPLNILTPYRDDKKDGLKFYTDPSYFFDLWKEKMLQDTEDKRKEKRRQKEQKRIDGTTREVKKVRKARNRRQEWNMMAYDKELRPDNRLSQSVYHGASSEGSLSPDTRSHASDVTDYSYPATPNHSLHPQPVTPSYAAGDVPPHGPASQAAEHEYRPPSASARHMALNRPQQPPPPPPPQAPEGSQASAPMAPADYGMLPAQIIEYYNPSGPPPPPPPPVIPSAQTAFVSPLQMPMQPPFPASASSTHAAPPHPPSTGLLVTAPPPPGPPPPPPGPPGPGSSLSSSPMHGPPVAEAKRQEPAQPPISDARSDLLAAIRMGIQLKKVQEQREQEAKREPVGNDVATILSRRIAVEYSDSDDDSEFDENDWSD

The variants in the first assay derive from B1. To be noted: with sdhb_human SDHB.
For the variant R361C, the “effect of a mutation on the interaction” value is “with no effect”.

Variants of B1 are the subject of another assay. To be noted: with sdhb_human SDHB. The source holds these as a separate data set.
With G386D, the “effect of a mutation on the interaction” value was “with no effect”.

Variants of B1 are the subject of the next assay. Particulars: with sdhb_human SDHB. This is another data set of the same source.
For G386D, the “effect of a mutation on the interaction” value was “increasing interaction strength”.

In another assay the parent is B2. To be noted: with obf1_human POU2AF1, Q16633.
On to G386D, for which the “effect of a mutation on the interaction” value is recorded as “with no effect”.

The variants in the next assay derive from B2. To be noted: with obf1_human POU2AF1, Q16633. This is another data set of the same source.
Regarding G386D, the “effect of a mutation on the interaction” value is reported as “increasing interaction strength”.

Variants of B3 are the subject of a further assay. To be noted: with phf6_human PHF6, Q8IWS0.
For the variant R361C, the “effect of a mutation on the interaction” value is “with no effect”.

The variants in a further assay derive from B4. To be noted: with nox3_human NOX3, Q9HBY0.
As to G386D, the “effect of a mutation on the interaction” value is given as “with no effect”.

Variants of B4 are the subject of a further assay. To be noted: with nox3_human NOX3, Q9HBY0. This is another data set of the same source.
Turning to R361H, the “effect of a mutation on the interaction” value is “with no effect”.

Variants of B5 are the subject of a further assay. Particulars: with tnap3_human TNFAIP3, P21580.
Consider G386D, for which the “effect of a mutation on the interaction” value is on record as “with no effect”.

Variants of B6 are the subject of the next assay. Particulars: with ttyh2_human TTYH2, Q9BSA4.
Consider G386D, for which the “effect of a mutation on the interaction” value is recorded as “with no effect”.

The variants in the next assay derive from B7. Particulars: with wasf3_human WASF3, Q9UPY6.
Take G386D: the “effect of a mutation on the interaction” value is reported as “with no effect”.

In a further assay the parent is B7. To be noted: with wasf3_human WASF3, Q9UPY6. This is another data set of the same source.
Consider G386D, for which the “effect of a mutation on the interaction” value is “increasing interaction strength”.
